This passage reports Kd, koff and kon results from patent publication US20210163591A1 (TEL HASHOMER MEDICAL RESEARCH INFRASTRUCTURE AND SERVICES, published 2021).

The target in assay [1] is T1, human GABRA2 (SEQ ID NO: 21) (human, UniProt P47869 29-251).
T1 construct: The Biacore method says only 'Diluted GABRA2'; I took it to be the same antigen; also called GABRA2 protein; human GABRA2 antigen
T1 sequence: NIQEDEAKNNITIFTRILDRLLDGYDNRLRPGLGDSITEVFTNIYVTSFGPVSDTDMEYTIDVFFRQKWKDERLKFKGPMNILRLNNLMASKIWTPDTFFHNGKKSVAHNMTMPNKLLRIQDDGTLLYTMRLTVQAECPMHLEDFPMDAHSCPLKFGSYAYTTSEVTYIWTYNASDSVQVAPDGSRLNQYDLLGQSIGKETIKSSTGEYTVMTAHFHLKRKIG
The assay is described as follows: Biacore SPR, antibody immobilized on CM5 chip, GABRA2 as analyte, single-dose kinetics. How it is done:
(§1) Biacore analysis—Antibody was immobilized onto a CM5 sensor chip (Cat No. BR-1005-30) under 25° C. while HBS-EP was used as the running buffer. The sensor chip surface of flow cells 1 and 2 were activated by freshly mixed 50 mmol/1 N-Hydroxysuccinimide (NHS) and 200 mmol/I 1-ethyl-3-(3-dimethylaminopropyl) carbodiimide hydrochloride (EDC) for 200s ([…]). Afterwards, the antibody diluted in 10 mml/l NaAC (pH 4.5) was injected into flow cell 2 to achieve conjugation of 300 Response Unit respectively, while flow cell 1 was set as blank. After the amine coupling reaction, the remaining active coupling sites on chip surface were blocked with 200s injection of 1 mol/l ethanolamine hydrochloride. […] Diluted GABRA2 was injected over the surface as association phase, followed by injecting running buffer as dissociation phase. Data was processed using the Biacore 8K Evaluation software version 1.1. Flow cell 1 and blank injection of buffer in each cycle were used as double reference for Response Unit subtraction.

Assay [2] addresses T1, human GABRA2 (SEQ ID NO: 21). The assay is described as follows: Biacore SPR, antibody immobilized on CM5 chip, GABRA2 as analyte, single-cycle kinetics. The method, then: as §1
A general note: SPR reads the build-up and loss of mass on a sensor chip optically.

B1: antibody U6882DH130_13, purified from hybridoma 10C5B9 (antibody, V domains shown)
VH: EVQLQQSGAELVKPGASVKLSCTASGFNIKDTYMYWVKQRPEQGLEWIGRIDPANGNTKYDPKFQGKATITADTSSNTAYLQLSSLTSEDTAVYYCASNYYGSFDYWGQGTTLTVSS
VL: DIQMTQTTSSLSASLGDRVTISCRASQDISNYLNWYQQKPDGTVKLLIYYTSRLHSGVPSRFSGSGSGTDYSLTISNLEQEDIATYFCQQGNTLPPTFGGGTKLEIK
notes: also called U6882DH130_13 Antibody; Antibody from clone10C5B9
In assay [1], B1 came in with a Kd of 0.251 nM, a koff of 1.58e-05 s⁻¹ and a kon of 62800 M⁻¹ s⁻¹. In assay [2], this molecule came in with an equilibrium dissociation constant (Kd) of 0.388 nM, a koff of 5.42e-05 s⁻¹ and a kon of 140000 M⁻¹ s⁻¹.

The term Kd denotes the constant that tells how readily two partners part at equilibrium. High values mean a looser complex, low ones a tighter complex. For orientation: koff means a measure of how fast the partners let go of each other. A high value points to fast dissociation. Usually kon stands for a measure of how fast the partners come together. A higher kon goes with faster complex formation.
